Key:
[1] = biological target: human RAGE-Fc fusion protein (human) (UniProt Q15109); assay: ligand competition ELISA, panel Blocks hRAGE-Fc interaction with S100-A; blocked ligand S100-A
[2] = biological target: murine RAGE-strep tag fusion protein (mouse) (UniProt Q62151); assay: BIACORE capture, SA-Mu RAGE over captured antibody, 1:1 Langmuir global fit, FC3
[3] = biological target: murine RAGE-strep tag fusion protein (mouse) (UniProt Q62151); assay: BIACORE capture, SA-Mu RAGE over captured antibody, 1:1 Langmuir global fit, FC4
[4] = biological target: soluble human streptavidin-tagged RAGE (human) (UniProt Q15109); assay: BIACORE capture, hRAGE-SA over captured antibody, 1:1 Langmuir global fit, FC3
[5] = biological target: human RAGE-Fc fusion protein (human) (UniProt Q15109); assay: ligand competition ELISA, panel Blocks hRAGE-Fc interaction with S100-B; blocked ligand S100-B
[6] = biological target: human RAGE-Fc fusion protein (human) (UniProt Q15109); assay: ligand competition ELISA, panel Blocks hRAGE-Fc interaction with A-beta; blocked ligand amyloid beta 1-42 peptide
[7] = biological target: soluble human streptavidin-tagged RAGE (human) (UniProt Q15109); assay: BIACORE capture assay, antibody on CM5 chip, hRAGE-SA 0-100 nM in solution
[8] = biological target: murine RAGE-strep tag fusion protein (mouse) (UniProt Q62151); assay: BIACORE capture, SA-Mu RAGE over captured antibody, 1:1 Langmuir global fit, row Average
[9] = biological target: cynomolgus monkey RAGE (cynomolgus monkey (Macaca fascicularis)); assay: cell-based ELISA, 293 cells transfected with cynomolgus monkey RAGE
[10] = biological target: human RAGE-Fc fusion protein (human) (UniProt Q15109); assay: ligand competition ELISA, panel Blocks hRAGE-Fc interaction with HMGB1; blocked ligand HMGB1
[11] = biological target: murine RAGE-strep tag fusion protein (mouse) (UniProt Q62151); assay: BIACORE capture, SA-Mu RAGE over captured antibody, 1:1 Langmuir global fit, FC2
[12] = biological target: human RAGE-Fc fusion protein (human) (UniProt Q15109); assay: antibody competition ELISA on hRAGE-Fc; competitor biotinylated XT-M4
[13] = biological target: soluble human streptavidin-tagged RAGE (human) (UniProt Q15109); assay: BIACORE capture, hRAGE-SA over captured antibody, 1:1 Langmuir global fit, row Average
rhVCAM-1 (human) = rhVCAM-1 (human) (UniProt P19320); assay: direct binding ELISA, receptor coated at 1 µg/ml, antibody at 20 µg/ml
hLox1-Fc (human) = hLox1-Fc (human) (UniProt P78380); assay: as above
[14] = biological target: human RAGE-Fc fusion protein (human) (UniProt Q15109); assay: as above
rhNCAM-1 (human) = rhNCAM-1 (human) (UniProt P13591); assay: as above
rhB7-H1-Fc (human) = rhB7-H1-Fc (human) (UniProt Q9NZQ7); assay: as above
[15] = biological target: rhTLR4 (C-terminal His tag) (human) (UniProt O00206); assay: as above
mLox1-Fc (mouse) = mLox1-Fc (mouse) (UniProt Q9EQ09); assay: as above
rhICAM-1-Fc (human) = rhICAM-1-Fc (human) (UniProt P05362); assay: as above
[16] = biological target: human RAGE, full length (human) (UniProt Q15109); assay: cell-based ELISA, 293 cells transfected with human RAGE

murine RAGE-strep tag fusion protein (mouse), sequence (Q62151 other isoform, or with tags, fused parts or gaps): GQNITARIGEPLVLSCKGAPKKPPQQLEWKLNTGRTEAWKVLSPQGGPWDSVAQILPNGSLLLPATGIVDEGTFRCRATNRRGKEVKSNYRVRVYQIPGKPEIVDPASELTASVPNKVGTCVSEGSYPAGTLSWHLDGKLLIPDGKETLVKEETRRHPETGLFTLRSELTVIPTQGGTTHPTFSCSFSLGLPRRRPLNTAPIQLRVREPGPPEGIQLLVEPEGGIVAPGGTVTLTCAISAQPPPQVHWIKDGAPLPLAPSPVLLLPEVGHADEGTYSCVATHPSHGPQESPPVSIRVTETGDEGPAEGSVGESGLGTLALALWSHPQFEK
rhICAM-1-Fc (human), sequence (P05362 28-480): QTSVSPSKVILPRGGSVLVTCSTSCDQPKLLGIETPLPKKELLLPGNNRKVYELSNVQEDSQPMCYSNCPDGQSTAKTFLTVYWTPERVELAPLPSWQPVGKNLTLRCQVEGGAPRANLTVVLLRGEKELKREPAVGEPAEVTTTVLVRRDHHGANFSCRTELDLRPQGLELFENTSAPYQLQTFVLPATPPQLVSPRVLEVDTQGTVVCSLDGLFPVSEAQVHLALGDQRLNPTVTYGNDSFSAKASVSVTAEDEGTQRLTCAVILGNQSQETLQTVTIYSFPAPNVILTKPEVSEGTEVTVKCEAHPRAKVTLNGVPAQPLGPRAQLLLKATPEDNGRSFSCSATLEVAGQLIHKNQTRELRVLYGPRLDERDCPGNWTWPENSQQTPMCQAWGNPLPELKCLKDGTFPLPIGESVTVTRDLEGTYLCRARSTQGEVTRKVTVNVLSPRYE
rhTLR4 (C-terminal His tag) (human), sequence (O00206 24-631 limits assumed): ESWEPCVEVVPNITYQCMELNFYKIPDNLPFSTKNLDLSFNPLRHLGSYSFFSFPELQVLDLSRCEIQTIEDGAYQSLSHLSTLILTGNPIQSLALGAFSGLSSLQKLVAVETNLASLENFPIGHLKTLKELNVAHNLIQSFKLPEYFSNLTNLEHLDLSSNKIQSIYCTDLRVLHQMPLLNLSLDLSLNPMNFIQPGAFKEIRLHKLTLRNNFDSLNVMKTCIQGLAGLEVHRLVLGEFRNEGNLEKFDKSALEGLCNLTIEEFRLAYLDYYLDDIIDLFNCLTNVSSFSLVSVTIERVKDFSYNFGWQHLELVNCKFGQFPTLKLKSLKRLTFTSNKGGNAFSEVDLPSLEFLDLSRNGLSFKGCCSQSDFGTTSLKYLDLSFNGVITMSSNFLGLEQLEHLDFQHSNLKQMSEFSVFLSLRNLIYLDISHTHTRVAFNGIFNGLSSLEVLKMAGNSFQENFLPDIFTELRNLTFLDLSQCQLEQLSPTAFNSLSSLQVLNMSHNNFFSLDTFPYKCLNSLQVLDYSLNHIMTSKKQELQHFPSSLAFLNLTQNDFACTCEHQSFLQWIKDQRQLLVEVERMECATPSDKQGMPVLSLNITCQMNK
rhVCAM-1 (human), sequence (P19320 25-698 limits assumed): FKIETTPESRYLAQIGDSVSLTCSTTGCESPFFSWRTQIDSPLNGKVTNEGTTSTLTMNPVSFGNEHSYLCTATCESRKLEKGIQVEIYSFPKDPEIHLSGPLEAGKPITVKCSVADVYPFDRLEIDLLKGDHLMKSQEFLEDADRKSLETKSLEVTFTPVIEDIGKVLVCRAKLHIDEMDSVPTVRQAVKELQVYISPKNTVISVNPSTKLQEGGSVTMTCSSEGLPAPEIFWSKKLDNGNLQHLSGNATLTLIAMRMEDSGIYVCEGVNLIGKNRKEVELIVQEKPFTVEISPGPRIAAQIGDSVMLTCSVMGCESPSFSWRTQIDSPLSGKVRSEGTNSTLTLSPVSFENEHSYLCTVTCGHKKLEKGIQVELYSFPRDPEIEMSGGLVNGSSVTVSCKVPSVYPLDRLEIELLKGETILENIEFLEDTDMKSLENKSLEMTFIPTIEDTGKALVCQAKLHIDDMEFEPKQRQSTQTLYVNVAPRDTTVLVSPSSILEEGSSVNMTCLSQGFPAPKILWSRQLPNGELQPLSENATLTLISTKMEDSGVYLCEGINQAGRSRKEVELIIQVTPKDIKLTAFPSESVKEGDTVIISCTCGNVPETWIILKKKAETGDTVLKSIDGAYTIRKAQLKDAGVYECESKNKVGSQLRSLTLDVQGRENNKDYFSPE
rhNCAM-1 (human), sequence (P13591 other isoform, or with tags, fused parts or gaps limits assumed): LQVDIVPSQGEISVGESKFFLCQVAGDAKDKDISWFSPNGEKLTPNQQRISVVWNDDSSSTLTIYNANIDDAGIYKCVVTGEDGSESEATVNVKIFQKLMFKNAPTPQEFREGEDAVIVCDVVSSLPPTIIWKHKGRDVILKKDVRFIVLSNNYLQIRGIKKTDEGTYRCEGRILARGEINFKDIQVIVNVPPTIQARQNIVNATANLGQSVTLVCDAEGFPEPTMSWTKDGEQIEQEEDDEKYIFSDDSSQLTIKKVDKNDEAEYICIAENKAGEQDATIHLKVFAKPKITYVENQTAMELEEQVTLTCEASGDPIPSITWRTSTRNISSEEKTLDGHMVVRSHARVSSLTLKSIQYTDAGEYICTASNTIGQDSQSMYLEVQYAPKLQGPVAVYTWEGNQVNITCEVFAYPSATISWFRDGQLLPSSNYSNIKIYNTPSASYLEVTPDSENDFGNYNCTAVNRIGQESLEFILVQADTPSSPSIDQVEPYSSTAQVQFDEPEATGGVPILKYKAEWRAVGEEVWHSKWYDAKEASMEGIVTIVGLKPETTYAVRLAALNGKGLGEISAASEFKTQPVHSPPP
rhB7-H1-Fc (human), sequence (Q9NZQ7 19-239): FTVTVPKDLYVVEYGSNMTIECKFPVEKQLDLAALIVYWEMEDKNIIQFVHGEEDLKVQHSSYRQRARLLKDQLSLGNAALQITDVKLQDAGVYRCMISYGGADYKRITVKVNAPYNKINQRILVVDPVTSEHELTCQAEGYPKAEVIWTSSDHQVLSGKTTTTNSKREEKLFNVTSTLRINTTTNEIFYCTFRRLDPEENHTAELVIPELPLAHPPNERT
mLox1-Fc (mouse), sequence (Q9EQ09 60-363): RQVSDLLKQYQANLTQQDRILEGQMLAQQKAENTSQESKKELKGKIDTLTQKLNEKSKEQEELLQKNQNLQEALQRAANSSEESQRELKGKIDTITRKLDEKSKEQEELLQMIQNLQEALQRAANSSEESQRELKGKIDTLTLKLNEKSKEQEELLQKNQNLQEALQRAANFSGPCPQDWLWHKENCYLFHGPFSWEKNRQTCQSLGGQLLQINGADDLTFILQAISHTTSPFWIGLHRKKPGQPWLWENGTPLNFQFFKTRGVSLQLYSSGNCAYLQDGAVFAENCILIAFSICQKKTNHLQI

IC50 (read off the curve) [1]: 0.09 mg/L | Kd [2]: 1.9 nM | Kd [3]: 2 nM | Kd [4]: 7.33 nM | IC50 (read off the curve) [5]: 0.08 mg/L | IC50 (read off the curve) [6]: 0.2 mg/L | Ka [7]: 1.77e+08 M⁻¹ | Kd [7]: 5.66 nM | Kd [8]: 1.9 nM | EC50 [9]: 1.66 nM | IC50 (read off the curve) [10]: 0.1 mg/L | Kd [11]: 1.9 nM | IC50 (read off the curve) [12]: 0.4 mg/L | Kd [13]: 7.91 nM | OD450 (rhVCAM-1 (human)): 0.004 | OD450 (hLox1-Fc (human)): 0.017 | OD450 [14]: 3.8 | OD450 (rhNCAM-1 (human)): 0.006 | OD450 (rhB7-H1-Fc (human)): 0.003 | OD450 [15]: 0 | OD450 (mLox1-Fc (mouse)): 0.01 | OD450 (rhICAM-1-Fc (human)): 0.004 | EC50 [16]: 0.8 nM
Substance: chimeric antibody XT-M4 (from UniProt P01857 1-330)
